Here are results for 2 substances from publication PMC11329700.

This test deals with His-tagged mouse Endophilin A1 SH3 domain (mouse) (UniProt Q62420). As to the kind of experiment: ELISA; His-tagged mouse Endophilin A1 SH3 domain coated onto a 96-well plate, overlaid with increasing concentrations of GST-tagged Dyn1-PRR peptides; two experiments with four replicates each. For orientation: In an ELISA, binding on a coated surface is turned into a signal by an enzyme label.
Sequence of His-tagged mouse Endophilin A1 SH3 domain (mouse) (Q62420 290-349): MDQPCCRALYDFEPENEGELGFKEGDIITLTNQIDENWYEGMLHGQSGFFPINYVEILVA

As for “GST-Dyn1xA-PRR 751-798 (domain or fragment)”, the fold weaker affinity than xA 746-864 came to 9 fold. As for “GST-Dyn1xB-PRR (dynamin 1xB proline-rich region, amino acids 746-851) (domain or fragment)”, the fold lower affinity than xA 746-864 was found to be 3 fold.
